Tests used:
[1] = target: T1, human CCR8 (human, UniProt P51685 1-355); assay: flow cytometry on 293F cells expressing hCCR8; column 'Inhibition EC50 (nM)'
T1 construct: whole, on cells; also called hCCR8; C-C Motif Chemokine Receptor 8
Protocol: (§1) Human, rat, dog, mouse and cynomolgus CCR8 sequence were analysis. The result was shown that ECD2 regions of human, rat, dog, mouse and cynomolgus CCR8 were similar (Table 10). […] After reacting at 4° C. for 1 hour, it was reacted with Alexa Fluor 488 affinpure goat anti-human Ig(H+L) (Jackson, 109-545-003) and flow cytometry analysis was performed. The highest MFI of serially dilution is supposed as 100%, the inhibition percent was calculated according to the following formula.

[2] = target: T1, human CCR8; assay: binding affinity EC50, comparison of Table 12 (FACS on CCR8-expressing cells)
[3] = target: T2, human CX3CR1 (human, UniProt P49238 1-355); assay: flow cytometry on 293F cells expressing human CX3CR1; 14 dilutions by 3-fold from 25 µg/mL
T2 construct: whole, on cells; also called hCX3CR1
T2 sequence (looked up): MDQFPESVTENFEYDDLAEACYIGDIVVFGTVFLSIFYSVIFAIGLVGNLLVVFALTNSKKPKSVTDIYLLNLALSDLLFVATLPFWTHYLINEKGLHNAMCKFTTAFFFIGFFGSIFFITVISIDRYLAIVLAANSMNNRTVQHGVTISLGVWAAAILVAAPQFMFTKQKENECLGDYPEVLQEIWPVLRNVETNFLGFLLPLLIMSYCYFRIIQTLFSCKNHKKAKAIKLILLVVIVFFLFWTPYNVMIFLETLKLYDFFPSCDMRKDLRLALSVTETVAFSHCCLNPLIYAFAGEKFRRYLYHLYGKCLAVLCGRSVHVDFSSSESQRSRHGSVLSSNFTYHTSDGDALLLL
Protocol: (§2) 3F11hz4 humanized antibody was tested for binding to CCR4 and CX3CR1 overexpressing cells by flow cytometry. […] After reacting at 4° C. for 1 hour, it was reacted with Alexa Fluor 488 affinipure goat anti-human Ig(H+L) (Jackson, 109-545-003) and flow cytometry analysis was performed.

[4] = target: T1, human CCR8; assay: FACS as in Example 2; antibody after Oxidation 24 h; ratio to T0
[5] = target: T1, human CCR8; assay: FACS as in Example 2; antibody after Freeze/thaw 5FT; ratio to T0
[6] = target: T1, human CCR8; assay: FACS as in Example 2; antibody after 40° C. 2 W; ratio to T0
[7] = target: T1, human CCR8; assay: cell-based or functional assay
[8] = target: T3, human CCR4 (human, UniProt P51679 1-360); assay: flow cytometry on 293F cells expressing human CCR4; 14 dilutions by 3-fold from 25 µg/mL
T3 construct: whole, on cells; also called hCCR4
T3 sequence (looked up): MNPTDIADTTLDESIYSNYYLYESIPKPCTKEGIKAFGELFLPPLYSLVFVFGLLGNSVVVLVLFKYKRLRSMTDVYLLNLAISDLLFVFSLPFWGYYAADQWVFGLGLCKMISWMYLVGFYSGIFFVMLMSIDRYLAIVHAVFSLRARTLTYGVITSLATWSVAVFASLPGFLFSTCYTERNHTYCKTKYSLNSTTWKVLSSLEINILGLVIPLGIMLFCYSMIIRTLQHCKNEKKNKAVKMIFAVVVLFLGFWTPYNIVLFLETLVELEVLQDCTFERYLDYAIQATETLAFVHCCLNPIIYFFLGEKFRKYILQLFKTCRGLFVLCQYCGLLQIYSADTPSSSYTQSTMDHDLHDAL
Protocol: as §2

[9] = target: T1, human CCR8; assay: cell-based or functional assay; remark: listed apart in the source
[10] = target: T1, human CCR8; assay: FACS as in Example 2; T0 (the reference itself)
[11] = target: T1, human CCR8; assay: FACS as in Example 2; antibody after 40° C. 4 W; ratio to T0
[12] = target: T4, hCCR8(V104A) (human, UniProt P51685 1-355); assay: flow cytometry on 293F cells transiently expressing the mutant; column 'Inhibition EC50 (nM)'
T4 construct: whole, on cells
Protocol: as §1

[13] = target: T5, hCCR8(K107A) (human, UniProt P51685 1-355); assay: as above
T5 construct: whole, on cells
Protocol: as §1

[14] = target: T6, hCCR8(T103A) (human, UniProt P51685 1-355); assay: as above
T6 construct: whole, on cells
Protocol: as §1

[15] = target: T7, hCCR8(L96A) (human, UniProt P51685 1-355); assay: as above
T7 construct: whole, on cells
Protocol: as §1

[16] = target: T8, hCCR8(V100A) (human, UniProt P51685 1-355); assay: as above
T8 construct: whole, on cells
Protocol: as §1

[17] = target: T9, hCCR8(M105A) (human, UniProt P51685 1-355); assay: as above
T9 construct: whole, on cells
Protocol: as §1

[18] = target: T10, hCCR8(D97A) (human, UniProt P51685 1-355); assay: as above
T10 construct: whole, on cells; also called mutant of 97 aa in CCR8
Protocol: as §1

[19] = target: T11, hCCR8(Q98A) (human, UniProt P51685 1-355); assay: as above
T11 construct: whole, on cells
Protocol: as §1

[20] = target: T12, hCCR8(L95A) (human, UniProt P51685 1-355); assay: as above
T12 construct: whole, on cells
Protocol: as §1

[21] = target: T13, hCCR8(Y94A) (human, UniProt P51685 1-355); assay: as above
T13 construct: whole, on cells
Protocol: as §1

[22] = target: T1, human CCR8; assay: FACS on human CCR8-expressing 293F cells
[23] = target: T1, human CCR8; assay: FACS as in Example 2; antibody after 40° C. 1 W; ratio to T0

T1 sequence (P51685 whole entry): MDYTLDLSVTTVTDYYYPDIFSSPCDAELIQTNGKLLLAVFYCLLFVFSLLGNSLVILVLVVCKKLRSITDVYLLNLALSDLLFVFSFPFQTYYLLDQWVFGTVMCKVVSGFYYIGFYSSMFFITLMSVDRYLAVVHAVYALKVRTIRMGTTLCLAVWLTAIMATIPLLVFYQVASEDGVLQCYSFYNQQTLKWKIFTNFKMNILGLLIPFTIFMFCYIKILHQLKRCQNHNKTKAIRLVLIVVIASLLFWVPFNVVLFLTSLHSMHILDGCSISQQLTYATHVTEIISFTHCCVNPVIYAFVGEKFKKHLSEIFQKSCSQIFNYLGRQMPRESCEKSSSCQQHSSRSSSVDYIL
T12 sequence (P51685 whole entry L95A): as the sequence (P51685 whole entry) above, with L95A counted along it
T6 sequence (P51685 whole entry T103A): as the sequence (P51685 whole entry) above, with T103A counted along it
T13 sequence (P51685 whole entry Y94A): as the sequence (P51685 whole entry) above, with Y94A counted along it
T9 sequence (P51685 whole entry M105A): as the sequence (P51685 whole entry) above, with M105A counted along it
T11 sequence (P51685 whole entry Q98A): as the sequence (P51685 whole entry) above, with Q98A counted along it
T7 sequence (P51685 whole entry L96A): as the sequence (P51685 whole entry) above, with L96A counted along it
T5 sequence (P51685 whole entry K107A): as the sequence (P51685 whole entry) above, with K107A counted along it
T4 sequence (P51685 whole entry V104A): as the sequence (P51685 whole entry) above, with V104A counted along it
T8 sequence (P51685 whole entry V100A): as the sequence (P51685 whole entry) above, with V100A counted along it
T10 sequence (P51685 whole entry D97A): as the sequence (P51685 whole entry) above, with D97A counted along it

B1: 3F11hz4 (antibody, V domains shown)
VH: EVQLVESGGGLVQPGGSLKLSCAASGFSFNTYAMNWVRQASGKGLEWVGRIRSKSNYYATYYAASVKGRFTISRDDSKSTLYLQMNSLKTEDTAVYYCVRGRELGDYYAMDYWGQGTLVTVSS
VL: DIVMTQSPLSLPVTPGEPASISCRSSKSLLHSNGNTYLYWFLQKPGQSPQLLIYRMSNLASGVPDRFSGSGSGTDFTLKISRVEAEDVGVYYCMQHLEYPFTFGQGTKLEIK
notes: Humanized variant of 3F11; also called humanized 3F11hz4 antibody
B1 was tested, and the EC50 [1] was 0.234 nM, the EC50 [2] was 0.19 nM and the binding result [3] was “no binding (tested: 25 µg/mL)”. For the same binder, the “Affinity EC50 (nM) Ratio” value [4] was 1.36, the “Affinity EC50 (nM) Ratio” value [5] was 1.22 and the “Affinity EC50 (nM) Ratio” value [6] was 1.27. The “Calcium mobilization IC50” value [7] was 4 nM, the binding result [8] was “no binding (tested: 25 µg/mL)” and the “Calcium mobilization IC50 (nM) Ratio; 40° C. 1 W” value [9] was 1.31. For the same binder, the “Calcium mobilization IC50 (nM) Ratio; 40° C. 2 W” value [9] was 1.03, the “Calcium mobilization IC50 (nM) Ratio; 40° C. 4 W” value [9] was 2.22 and the “Calcium mobilization IC50 (nM) Ratio; Freeze/thaw 5FT” value [9] was 1.5. For the same binder, the “Calcium mobilization IC50 (nM) Ratio; Oxidation 24 h” value [9] was 1.63, the “Calcium mobilization IC50 (nM) Ratio; T0” value [9] was 1 and the “Affinity EC50 (nM) Ratio” value [10] was 1. For the same binder, the “Affinity EC50 (nM) Ratio” value [11] was 1.35, the EC50 [12] was 0.341 nM and the EC50 [13] was 0.22 nM. The EC50 [14] was 0.311 nM, the EC50 [15] was 0.28 nM and the EC50 [16] was 0.237 nM. For the same binder, the EC50 [17] was 0.334 nM, the EC50 [18] was 24 nM and the EC50 [19] was 0.194 nM. The EC50 [20] was 0.459 nM, the EC50 [21] was 0.306 nM and the EC50 [22] was 0.194 nM. For the same binder, the “Affinity EC50 (nM) Ratio” value [23] was 1.34.

— patent publication US20240352134A1 (NANJING IMMUNOPHAGE BIOTECH, published 2024)
